Experimental data: patent US20250019438A1 (AstraZeneca / MedImmune, published 2025)
Positions count from the first letter of the chain named.

B1: EGFR-CD3 DuetMab with anti-CD3 variant AZ Vκ 26 + AZ VH SN75 (bispecific antibody, part only; not given: anti-EGFR arm, constant regions, V domains shown, not shown: another chain or arm of the molecule; a dimerising Fc or GST; small tags and cut ends)
VH: EVQLVESGGALVKPGGSLRLSCAASGFTFSNAWMHWVRQAPGKQLEWVAQIKDRSQTYATYYAESVKGRFTISRDDSKNTLYLQMNSLKTEDTAVYYCRGVYYANAPFDYWGQGTLVTVSS
VL: DIVMTQSPLSLPVTPGEPASISCRSSQSLVHNTGNTYLSWYLQKPGQSPQSLIYKVSNRASGVPDRFSGSGSGTDFTLKISRVEAEDVGVYYCGQGTQAPFSFGSGTKVEIK
B2: EGFR-CD3 DuetMab with anti-CD3 variant AZ Vκ 17 + AZ VH E79 (bispecific antibody, part only; not given: anti-EGFR arm, constant regions, V domains shown, not shown: another chain or arm of the molecule; a dimerising Fc or GST; small tags and cut ends)
VH: B1 VH with S30T, N31E, N105V, A106T
VL: B1 VL with S102T
B3: EGFR-CD3 DuetMab with anti-CD3 variant AZ Vκ 26 + AZ VH SN79 (bispecific antibody, part only; not given: anti-EGFR arm, constant regions, V domains shown, not shown: another chain or arm of the molecule; a dimerising Fc or GST; small tags and cut ends)
VH: B1 VH with N105V, A106T
VL: B1 VL
B4: EGFR-CD3 DuetMab with anti-CD3 variant AZ Vκ 29 + AZ VH E75 (bispecific antibody, part only; not given: anti-EGFR arm, constant regions, V domains shown, not shown: another chain or arm of the molecule; a dimerising Fc or GST; small tags and cut ends)
VH: B1 VH with S30T, N31E
VL: B1 VL with A99F, S102T
B5: EGFR-CD3 DuetMab with anti-CD3 variant AZ Vκ 26 + AZ VH E82 (bispecific antibody, part only; not given: anti-EGFR arm, constant regions, V domains shown, not shown: another chain or arm of the molecule; a dimerising Fc or GST; small tags and cut ends)
VH: B1 VH with S30T, N31E, A106T
VL: B1 VL
B6: EGFR-CD3 DuetMab with anti-CD3 variant AZ Vκ 26 + AZ VH E75 (bispecific antibody, part only; not given: anti-EGFR arm, constant regions, V domains shown, not shown: another chain or arm of the molecule; a dimerising Fc or GST; small tags and cut ends)
VH: B1 VH with S30T, N31E
VL: B1 VL
B7: EGFR-CD3 DuetMab with anti-CD3 variant AZ Vκ 26 + AZ VH R79 (bispecific antibody, part only; not given: anti-EGFR arm, constant regions, V domains shown, not shown: another chain or arm of the molecule; a dimerising Fc or GST; small tags and cut ends)
VH: B1 VH with S30T, N31R, N105V, A106T
VL: B1 VL
B8: EGFR-CD3 DuetMab with anti-CD3 variant AZ Vκ 17 + AZ VH R75 (bispecific antibody, part only; not given: anti-EGFR arm, constant regions, V domains shown, not shown: another chain or arm of the molecule; a dimerising Fc or GST; small tags and cut ends)
VH: B1 VH with S30T, N31R
VL: B1 VL with S102T
B9: EGFR-CD3 DuetMab with anti-CD3 variant AZ Vκ 29 + AZ VH R82 (bispecific antibody, part only; not given: anti-EGFR arm, constant regions, V domains shown, not shown: another chain or arm of the molecule; a dimerising Fc or GST; small tags and cut ends)
VH: B1 VH with S30T, N31R, A106T
VL: B1 VL with A99F, S102T
B10: EGFR-CD3 DuetMab with anti-CD3 variant AZ Vκ 29 + AZ VH SN79 (bispecific antibody, part only; not given: anti-EGFR arm, constant regions, V domains shown, not shown: another chain or arm of the molecule; a dimerising Fc or GST; small tags and cut ends)
VH: B1 VH with N105V, A106T
VL: B1 VL with A99F, S102T
B11: EGFR-CD3 DuetMab with anti-CD3 variant AZ Vκ 17 + AZ VH E75 (bispecific antibody, part only; not given: anti-EGFR arm, constant regions, V domains shown, not shown: another chain or arm of the molecule; a dimerising Fc or GST; small tags and cut ends)
VH: B1 VH with S30T, N31E
VL: B1 VL with S102T
B12: EGFR-CD3 DuetMab with anti-CD3 variant AZ Vκ 29 + AZ VH SN75 (bispecific antibody, part only; not given: anti-EGFR arm, constant regions, V domains shown, not shown: another chain or arm of the molecule; a dimerising Fc or GST; small tags and cut ends)
VH: B1 VH
VL: B1 VL with A99F, S102T
B13: EGFR-CD3 DuetMab with anti-CD3 variant AZ Vκ 17 + AZ VH E82 (bispecific antibody, part only; not given: anti-EGFR arm, constant regions, V domains shown, not shown: another chain or arm of the molecule; a dimerising Fc or GST; small tags and cut ends)
VH: B1 VH with S30T, N31E, A106T
VL: B1 VL with S102T
B14: EGFR-CD3 DuetMab with anti-CD3 variant AZ Vκ 29 + AZ VH R75 (bispecific antibody, part only; not given: anti-EGFR arm, constant regions, V domains shown, not shown: another chain or arm of the molecule; a dimerising Fc or GST; small tags and cut ends)
VH: B1 VH with S30T, N31R
VL: B1 VL with A99F, S102T
B15: EGFR-CD3 DuetMab with anti-CD3 variant AZ Vκ 17 + AZ VH R79 (bispecific antibody, part only; not given: anti-EGFR arm, constant regions, V domains shown, not shown: another chain or arm of the molecule; a dimerising Fc or GST; small tags and cut ends)
VH: B1 VH with S30T, N31R, N105V, A106T
VL: B1 VL with S102T
B16: EGFR-CD3 DuetMab with anti-CD3 variant AZ Vκ 17 + AZ VH SN82 (bispecific antibody, part only; not given: anti-EGFR arm, constant regions, V domains shown, not shown: another chain or arm of the molecule; a dimerising Fc or GST; small tags and cut ends)
VH: B1 VH with A106T
VL: B1 VL with S102T

The binders below were run against Biotinylated recombinant human CD3εδ (Acro Biosystems, CDD-H82W6) (human) (UniProt P07766) (assay: Octet BLI, biotinylated CD3εδ on streptavidin sensors, 1:1 model).
Sequence of Biotinylated recombinant human CD3εδ (Acro Biosystems, CDD-H82W6) (human) (P07766 23-126, stated change not applied, chain 1 of 2): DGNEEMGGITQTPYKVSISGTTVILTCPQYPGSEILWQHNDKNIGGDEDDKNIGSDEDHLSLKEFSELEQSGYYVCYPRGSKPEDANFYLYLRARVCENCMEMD
Sequence of Biotinylated recombinant human CD3εδ (Acro Biosystems, CDD-H82W6) (human) (P04234 22-105, stated change not applied, chain 2 of 2, further chain): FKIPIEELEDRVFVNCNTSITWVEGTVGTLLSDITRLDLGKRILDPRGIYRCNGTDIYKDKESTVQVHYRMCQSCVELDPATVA

Kd [nM]	koff [s⁻¹]	kon [M⁻¹ s⁻¹]	Binder
949	0.0155	16300	B1
5620	0.0497	8850	B2
1930	0.0361	18700	B3
2220	0.0404	18200	B4
3920	0.0287	7330	B5
2280	0.0172	7540	B6
712	0.0233	32700	B7
266	0.00644	24200	B8
595	0.0231	38800	B9
2670	0.114	42800	B10
2790	0.0198	7100	B11
1010	0.0282	27900	B12
4610	0.033	7140	B13
224	0.0119	53300	B14
734	0.018	24600	B15
1640	0.0149	9100	B16
